For data set [1] the following is noted: mouse, in vivo. From the text: Initial distribution studies used male and female CD-1 mice (8–10 weeks old) purchased from Charles River Laboratories (Seattle, WA). Follow-up studies performed in male and female hemizygous APP/PS1 mice and WT littermates on a C57BL/6J background (Cat 034832-JAX) were purchased from the Mutant Mouse Resource & Research Centers (MMRRC-NIH) at approximately 2 months of age.
IRA administration followed the IN protocol outlined in Rhea et al.. Mice were anesthetized with 40% urethane intraperitoneally. […] Delicate delivery with negligible force was necessary to prevent injuring the turbinates or penetrating the cribriform plate. Tips were also examined for the presence of blood to ensure no cribriform plate rupture took place. Mice remained in the supine state for a duration of at least 30 s before being placed onto the left side.
Collection of blood occurred from the right carotid artery, and the whole brain and olfactory bulbs (Olf) were removed at 5, 15, 30, and 60 min time points after IN administration. […] Radioactivity levels were calculated for the whole brain by combining the radioactivity of each brain region and dividing by the total weights. The same was done for the neocortex (Crtx) by combining radioactivity and weights for the FC, PC, and OC. […] A 50 µl aliquot of the serum was then collected for measurement of radioactivity. Radioactivity amounts for each individual brain region, olfactory bulb, and serum were measured in a Wizard2 Automatic Gamma Counter (PerkinElmer, Waltham, MA) for 30 min. ^14C-DA5-CH samples were solubilized with Solvable (Sigma), transferred to scintillation vials containing Ecoscint (National Diagnostics) and ^14C was measured in a beta counter (TriCarb 3110TR, Perkin-Elmer). Radioactivity for ^125I was measured by counts per minute (cpm) while ^14C was measured by disintegrations per minute (dpm). […]
Injected dose percentages per ml of serum (%Inj/ml) were calculated by: […]
where Inj is dose of cpm administered and cpm/ml is the amount of radioactivity in one ml of serum. […]

Data set [2] in a line: Stability of IRA following IN delivery (TCA acid precipitation of brain, olfactory bulb, serum) in CD-1 mice. The conditions noted are these: mouse, in vivo. The method, then: Blood was centrifuged at 3200 xg for 10 min. Serum (50 µl) was combined with 250 µl of BSA/LR, then combined with 300 µl of 30% TCA. Tissues were homogenized in 0.6 ml of 1% BSA/LR solution using a bead beater for 30 s at 4800 rpm twice on ice. […] Equal parts supernatant (300 µl) was mixed with an equal volume of 30% TCA. Serum and brain acid precipitated samples were centrifuged at 5400 xg for 10 min. The supernatant (S) was transferred to a new tube, leaving behind the pellet (P). The final S and P fractions for serum, olfactory bulb, and whole brain were counted separately, and the percentage of radioactivity was calculated using.
%Precip = 100 x (P)/(S + P) as described.
All biological samples were corrected for processing degradation by dividing their values by this processing control (PCon) value and multiplying by 100.

The conditions of data set [3]: mouse, in vivo, cited from earlier work. The source says:
Using ^125I labelled IRAs, we tested the ability of intravenously administered IRAs to cross the blood-brain barrier (BBB) in mice. […] The BBB is a functional interface between blood and brain that allows for regulated entry of circulating substrates.

The conditions of data set [4]: in vivo; cited from earlier work. The method, then: IRAs are forms of these hormones modified to prolong their otherwise very short half-lives in plasma (less than 2 min).

This is an account of results in article PMC11293113, “Comparing regional brain uptake of incretin receptor agonists after intranasal delivery in CD-1 mice and the APP/PS1 mouse model of Alzheimer’s disease” (Alzheimer's Research & Therapy, 2024).

As to `CC[C@H](C)[C@H](NC(=O)[C@H](Cc1ccccc1)NC(=O)[C@H](CCC(=O)O)NC(=O)[C@H](CCCCNC(=O)COCCOCCNC(=O)COCCOCCNC(=O)CC[C@H](NC(=O)CCCCCCCCCCCCCCCCC(=O)O)C(=O)O)NC(=O)[C@H](C)NC(=O)[C@H](C)NC(=O)[C@H](CCC(N)=O)NC(=O)CNC(=O)[C@H](CCC(=O)O)NC(=O)[C@H](CC(C)C)NC(=O)[C@H](Cc1ccc(O)cc1)NC(=O)[C@H](CO)NC(=O)[C@H](CO)NC(=O)[C@@H](NC(=O)[C@H](CC(=O)O)NC(=O)[C@H](CO)NC(=O)[C@@H](NC(=O)[C@H](Cc1ccccc1)NC(=O)[C@@H](NC(=O)CNC(=O)[C@H](CCC(=O)O)NC(=O)C(C)(C)NC(=O)[C@@H](N)Cc1cnc[nH]1)[C@@H](C)O)[C@@H](C)O)C(C)C)C(=O)N[C@@H](C)C(=O)N[C@@H](Cc1c[nH]c2ccccc12)C(=O)N[C@@H](CC(C)C)C(=O)N[C@H](C(=O)N[C@@H](CCCNC(=N)N)C(=O)NCC(=O)N[C@@H](CCCNC(=N)N)C(=O)NCC(=O)O)C(C)C` [Semaglutide], the “Whole brain maximal uptake relative to the other IRAs” value in data set [1] is “three-fold less uptake”. Moreover, in data set [2], the “Acid precipitation (AP%) olfactory bulb” value worked out at 100.9 ± 0.5%, the “Acid precipitation (AP%) serum” value was determined as 86.9 ± 1.1% and the “Acid precipitation (AP%) whole brain” value came to 74.7 ± 17.7%. Also, in data set [3], the “Rate of crossing the BBB after IV administration” value (“Rate of crossing the BBB” for short) is on record as “undetectable within an hour”, the “Rate of whole brain uptake an hour after IV administration” value is “undetectable” and the “Time for brain detection after systemic administration” value is reported as “took hours for brain detection”.
Take “albiglutide: incretin receptor agonist, cited IV BBB data”: the “Rate of crossing the BBB” value in data set [3] is given as “quickly”.
On to “dulaglutide (BAF): dulaglutide bioactive fragment, single IRA, 3315 Da, purchased from GLPBIO (catalog # GC31520); 125I-labelled”, for which, in data set [1], the “Serum level following IN delivery” value is recorded as “highest levels” and the “Sex difference in maximum uptake in hypothalamus” value is listed as “females having less uptake”. In addition, in data set [3], the “Rate of crossing the BBB” value is listed as “quickly” and the “Rate of whole brain uptake an hour after IV administration” value is “relatively high”.
As to glucagon-like peptide-1 [GLP-1], in data set [4], the Half-life in plasma entry is on record as “less than 2 min”.
Regarding “liraglutide: incretin receptor agonist, cited BBB data”, in data set [3], the “Time for brain detection after systemic administration” value was “took hours for brain detection”.
As to “lixisenatide: incretin receptor agonist, cited IV BBB data”, in data set [3], the “Rate of crossing the BBB” value was “slow rates”.
As for “tirzepatide: incretin receptor agonist, cited IV BBB data”, the “Rate of crossing the BBB” value in data set [3] is “undetectable within an hour”.
